Measurements as given in publication PMC314469, “Protein Interaction Networks by Proteome Peptide Scanning” (PLoS Biology, 2004).

T1: Boi2 SH3 (BOI2_YEAST), P39969
T1 chain: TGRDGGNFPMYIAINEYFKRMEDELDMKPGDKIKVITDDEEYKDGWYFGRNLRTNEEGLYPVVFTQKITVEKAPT

T2: Myo5 SH3 (MYO5_YEAST), Q04439
T2 chain: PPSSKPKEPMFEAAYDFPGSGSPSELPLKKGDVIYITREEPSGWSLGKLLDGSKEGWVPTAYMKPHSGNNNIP

T3: Yhr016c SH3 (YSC84_YEAST), P32793
T3 chain: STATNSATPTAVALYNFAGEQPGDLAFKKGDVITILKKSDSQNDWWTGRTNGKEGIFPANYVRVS

T4: Rvs167 SH3 (RV167_YEAST), P39743
T4 chain: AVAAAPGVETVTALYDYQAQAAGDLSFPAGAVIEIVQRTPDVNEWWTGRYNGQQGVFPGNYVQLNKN

T5: Yfr024 SH3 (LSB3_YEAST), P43603
T5 chain: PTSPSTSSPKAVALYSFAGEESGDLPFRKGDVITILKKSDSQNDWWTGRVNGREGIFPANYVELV

T6: Boi1 SH3 (BOI1_YEAST), P38041
T6 chain: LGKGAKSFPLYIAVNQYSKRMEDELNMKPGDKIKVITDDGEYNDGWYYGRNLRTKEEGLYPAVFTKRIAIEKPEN


What was measured:
Experiment in all cases: SPOT array
[1] = target: T1, Boi2 SH3 (BOI2_YEAST), P39969
[2] = target: T2, Myo5 SH3 (MYO5_YEAST), Q04439
[3] = target: T3, Yhr016c SH3 (YSC84_YEAST), P32793
[4] = target: T4, Rvs167 SH3 (RV167_YEAST), P39743
[5] = target: Sho1 SH3 (SHO1_YEAST), P40073
[6] = target: T5, Yfr024 SH3 (LSB3_YEAST), P43603
[7] = target: T6, Boi1 SH3 (BOI1_YEAST), P38041

Sequence of Sho1 SH3 (SHO1_YEAST), P40073 (P40073 295-366): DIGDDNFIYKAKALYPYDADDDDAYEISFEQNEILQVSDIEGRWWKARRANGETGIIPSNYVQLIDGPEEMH

Row | Binder | normalised SPOT signal, Boehringer light units (BLU); mean over the file's lines of this peptide [1] | normalised SPOT signal, Boehringer light units (BLU); mean over the file's lines of this peptide [2] | normalised SPOT signal, Boehringer light units (BLU); mean over the file's lines of this peptide [3] | normalised SPOT signal, Boehringer light units (BLU); mean over the file's lines of this peptide [4] | normalised SPOT signal, Boehringer light units (BLU); mean over the file's lines of this peptide [5] | normalised SPOT signal, Boehringer light units (BLU); mean over the file's lines of this peptide [6] | normalised SPOT signal, Boehringer light units (BLU); mean over the file's lines of this peptide [7]
1 | VVAVKIIPKKPWNA [YKL048C 113-126] | 30.9 | 115 | 14.7 | 47.8 | 66.9 | 42 | 85.7
2 | VWGPKPVPFQPMDV [YAL060W 292-305] | 247 | 96.9 | 257 | 112 | 24.2 | 1000 | 479
3 | WEALKSVPIPPRKN [YJR113C 98-111] | 1740 | 379 | 1880 | 2780 | 3290 | 9510 | 52300
4 | VVPERVKPAPPVSR [YPR171W 231-244] | 51.5 | 150 | 88 | 53.2 | 43 | 479 | 2710
5 | WFDLKGLPRQPEPL [YFL041W 550-563] | 409 | 102 | 201 | 278 | 19600 | 4860 | 78.2
6 | VVNEKEVPAEPETQ [YER120W 161-174] | 34.2 | 100 | 12.7 | 12.9 | 28.5 | 33 | 130
7 | VTDIKLTPTDPLVG [YDL230W 193-206] | 0.1 | 852 | 10.3 | 31 | 47.9 | 45.9 | 71.3
8 | WLDEKRIPSTPIDY [YPR145W 196-209] | 962 | 163 | 179 | 897 | 81.5 | 1670 | 11.5
9 | VQIKRADPHFPHDE [YMR140W 298-311] | 20 | 132 | 41.5 | 63.1 | 30.6 | 44.1 | 33.5

Second part, the binder after the results:

Row | normalised SPOT signal, Boehringer light units (BLU); mean over the file's lines of this peptide [1] | normalised SPOT signal, Boehringer light units (BLU); mean over the file's lines of this peptide [2] | normalised SPOT signal, Boehringer light units (BLU); mean over the file's lines of this peptide [3] | normalised SPOT signal, Boehringer light units (BLU); mean over the file's lines of this peptide [4] | normalised SPOT signal, Boehringer light units (BLU); mean over the file's lines of this peptide [5] | normalised SPOT signal, Boehringer light units (BLU); mean over the file's lines of this peptide [6] | normalised SPOT signal, Boehringer light units (BLU); mean over the file's lines of this peptide [7] | Binder
10 | 81.2 | 96.8 | 140 | 82 | 38.9 | 2790 | 104 | WENFKEEPGEPLSR [YMR227C 326-339]
11 | 21.2 | 814 | 10.3 | 31 | 59.1 | 299 | 216 | VSQRKKRPISPHLT [YMR118C 67-80]
12 | 0 | 504 | 236 | 309 | 244 | 2610 | 362 | VRSKRLFPVRPMAT [YAL040C 535-548]
13 | 21.4 | 252 | 50.6 | 28.5 | 61.2 | 96.3 | 657 | VSKAKLQPAKPQFT [YAR007C 257-270]
14 | 47 | 383 | 70.7 | 138 | 135 | 183 | 2560 | VYRRKSIPFAPHQI [YFR032C 169-182]
15 | 30.6 | 1270 | 131 | 43.8 | 31.7 | 1350 | 12.8 | WFILKLFPHEPIEG [YMR034C 292-305]
16 | 10.5 | 137 | 8.2 | 74 | 58.2 | 93.9 | 126 | VTSVKLHPNLPIVF [YOR269W 158-171]
